Biological target: the molecule itself
Assay: SEC; analytical size-exclusion chromatography at 4°C; self-association, monomer to dimer

B1: hRyR2^1-606 I419F mutant (domain or fragment, human, UniProt Q92736 1-606, looked up)
chain: MADGGEGEDEIQFLRTDDEVVLQCTATIHKEQQKLCLAAEGFGNRLCFLESTSNSKNVPPDLSICTFVLEQSLSVRALQEMLANTVEKSEGQVDVEKWKFMMKTAQGGGHRTLLYGHAILLRHSYSGMYLCCLSTSRSSTDKLAFDVGLQEDTTGEACWWTIHPASKQRSEGEKVRVGDDLILVSVSSERYLHLSYGNGSLHVDAAFQQTLWSVAPISSGSEAAQGYLIGGDVLRLLHGHMDECLTVPSGEHGEEQRRTVHYEGGAVSVHARSLWRLETLRVAWSGSHIRWGQPFRLRHVTTGKYLSLMEDKNLLLMDKEKADVKSTAFTFRSSKEKLDVGVRKEVDGMGTSEIKYGDSVCYIQHVDTGLWLTYQSVDVKSVRMGSIQRKAIMHHEGHMDDGISLSRSQHEESRTARVFRSTVFLFNRFIRGLDALSKKAKASTVDLPIESVSLSLQDLIGYFHPPDEHLEHEDKQNRLRALKNRQNLFQEEGMINLVLECIDRLHVYSSAAHFADVAGREAGESWKSILNSLYELLAALIRGNRKNCAQFSGSLDWLISRLERLEASSGILEVLHCVLVESPEALNIIKEGHIKSIISLLDKHGR
notes: human ryanodine receptor 2 (hRyR2), N-terminal region, amino acids 1-606, with the cardiac disease-associated mutation I419F in the central helix; Mixture of dimer and monomer by SEC at 4°C (65:35%); Construct details (host, tags) are in Borko et al. (2013); source: recombinant, purified; substitution mutant prepared with the QuikChange protocol
percent dimer (dimer:monomer ratio): 65% | stoichiometry N: 2
